# Assay results taken from patent US20170283834A1, “Processes for Producing A Fermentation Product Using A Fermenting Organism” (Novozymes A/S, priority 2014, published 2017).
# Substitutions are numbered along the chain they refer to. Names may count otherwise.
# B1: JTP021: protease variant of SEQ ID NO: 3: M152R (protein, listed as Thermoascus aurantiacus)
# chain: MRLVASLTALVALSVPVFPAAVNVKRASSYLEITLSQVSNTLIKAVVQNTGSDELSFVHLNFFKDPAPVKKVSVYRDGSEVQFEGILSRYKSTGLSRDAFTYLAPGESVEDVFDIASTYDLTSGGPVTIRTEGVVPYATANSTDIAGYISYSSNVLTIDVDGAAAATVSKAITPLDRRTRISSCSGSRQSALTTALRNAASLANAAADAAQSGSASKFSEYFKTTSSSTRQTVAARLRAVAREASSSSSGATTYYCDDPYGYCSSNVLAYTLPSYNIIANCDIFYTYLPALTSTCHAQDQATTALHEFTHAPGVYSPGTDDLAYGYQAARGLSSSQAVMNADTYALYANAIYLGC
# B2: JTP004: protease variant of SEQ ID NO: 3: S87P (protein, listed as Thermoascus aurantiacus)
# chain: B1 chain with S265P, R330M
# B3: JTP054: protease variant of SEQ ID NO: 3: ΔS5/D79L/S87P (protein, listed as Thermoascus aurantiacus)
# chain: MRLVASLTALVALSVPVFPAAVNVKRASSYLEITLSQVSNTLIKAVVQNTGSDELSFVHLNFFKDPAPVKKVSVYRDGSEVQFEGILSRYKSTGLSRDAFTYLAPGESVEDVFDIASTYDLTSGGPVTIRTEGVVPYATANSTDIAGYISYSSNVLTIDVDGAAAATVSKAITPLDRRTRISCSGSRQSALTTALRNAASLANAAADAAQSGSASKFSEYFKTTSSSTRQTVAARLRAVAREASSSSSGATTYYCLDPYGYCSPNVLAYTLPSYNIIANCDIFYTYLPALTSTCHAQDQATTALHEFTHAPGVYSPGTDDLAYGYQAAMGLSSSQAVMNADTYALYANAIYLGC
# B4: JTP055: protease variant of SEQ ID NO: 3: ΔG8/D79L/S87P (protein, listed as Thermoascus aurantiacus)
# chain: B3 chain with C183S, S184C, G185S
# B5: JTP063: protease variant of SEQ ID NO: 3: S49R/D79L/S87P (protein, listed as Thermoascus aurantiacus)
# chain: B1 chain with S227R, D257L, S265P, R330M
# B6: JTP040: protease variant of SEQ ID NO: 3: T54R/D79L/S87P (protein, listed as Thermoascus aurantiacus)
# chain: B1 chain with T232R, D257L, S265P, R330M
# B7: JTP068: protease variant of SEQ ID NO: 3: D79L/S87P/T114P (protein, listed as Thermoascus aurantiacus)
# chain: B1 chain with D257L, S265P, T292P, R330M
# B8: JTP064: protease variant of SEQ ID NO: 3: D79L/S87P/N88R (protein, listed as Thermoascus aurantiacus)
# chain: B1 chain with D257L, S265P, N266R, R330M
# B9: JTP036: protease variant of SEQ ID NO: 3: D79L/S87P/D142L (protein, listed as Thermoascus aurantiacus)
# chain: B1 chain with D257L, S265P, D320L, R330M
# B10: JTP042: protease variant of SEQ ID NO: 3: Q53K/D79L/S87P/I173V (protein, listed as Thermoascus aurantiacus)
# chain: B1 chain with Q231K, D257L, S265P, R330M, I351V
# B11: JTP047: protease variant of SEQ ID NO: 3: D79L/S87P/S157K (protein, listed as Thermoascus aurantiacus)
# chain: B1 chain with D257L, S265P, R330M, S335K
# B12: JTP053: protease variant of SEQ ID NO: 3: S41R/D79L/S87P/A112P/D142L/S157K (protein, listed as Thermoascus aurantiacus)
# chain: B1 chain with S219R, D257L, S265P, A290P, D320L, R330M, S335K
# B13: JTP069: protease variant of SEQ ID NO: 3: D79L/S87P/S115R (protein, listed as Thermoascus aurantiacus)
# chain: B1 chain with D257L, S265P, S293R, R330M
# B14: JTP052: protease variant of SEQ ID NO: 3: D79L/S87P/A112P/D142L/S157K (protein, listed as Thermoascus aurantiacus)
# chain: B1 chain with D257L, S265P, A290P, D320L, R330M, S335K
# B15: JTP046: protease variant of SEQ ID NO: 3: D79L/S87P/Q158W (protein, listed as Thermoascus aurantiacus)
# chain: B1 chain with D257L, S265P, R330M, Q336W
# B16: JTP043: protease variant of SEQ ID NO: 3: Q53R/D79L/S87P (protein, listed as Thermoascus aurantiacus)
# chain: B1 chain with Q231R, D257L, S265P, R330M
# B17: JTP072: protease variant of SEQ ID NO: 3: N26R/D79L/S87P (protein, listed as Thermoascus aurantiacus)
# chain: B1 chain with N204R, D257L, S265P, R330M
# B18: JTP079: protease variant of SEQ ID NO: 3: A27G/D79L/S87P/A112P/D142L (protein, listed as Thermoascus aurantiacus)
# chain: B1 chain with A205G, D257L, S265P, A290P, D320L, R330M
# B19: JTP071: protease variant of SEQ ID NO: 3: D79L/S87P/T116V (protein, listed as Thermoascus aurantiacus)
# chain: B1 chain with D257L, S265P, T294V, R330M
# B20: JTP048: protease variant of SEQ ID NO: 3: D79L/S87P/D104R (protein, listed as Thermoascus aurantiacus)
# chain: B1 chain with D257L, S265P, D282R, R330M
# B21: JTP078: protease variant of SEQ ID NO: 3: A27V/D79L/S87P/A112P/D142L (protein, listed as Thermoascus aurantiacus)
# chain: B1 chain with A205V, D257L, S265P, A290P, D320L, R330M
# B22: JTP059: protease variant of SEQ ID NO: 3: C6R/D79L/S87P (protein, listed as Thermoascus aurantiacus)
# chain: B1 chain with C184R, D257L, S265P, R330M
# B23: JTP051: protease variant of SEQ ID NO: 3: S41R/D79L/S87P/A112P/D142L (protein, listed as Thermoascus aurantiacus)
# chain: B1 chain with S219R, D257L, S265P, A290P, D320L, R330M
# B24: JTP061: protease variant of SEQ ID NO: 3: T46R/D79L/S87P (protein, listed as Thermoascus aurantiacus)
# chain: B1 chain with T224R, D257L, S265P, R330M
# B25: JTP045: protease variant of SEQ ID NO: 3: S41R/D79L/S87P (protein, listed as Thermoascus aurantiacus)
# chain: B1 chain with S219R, D257L, S265P, R330M
# B26: JTP088: protease variant of SEQ ID NO: 3: Y43F/D79L/S87P/A112P/D142L (protein, listed as Thermoascus aurantiacus)
# chain: B1 chain with Y221F, D257L, S265P, A290P, D320L, R330M
# B27: JTP090: protease variant of SEQ ID NO: 3: D79L/S87P/A112P/T124L/D142L (protein, listed as Thermoascus aurantiacus)
# chain: B1 chain with D257L, S265P, A290P, T302L, D320L, R330M
# B28: JTP083: protease variant of SEQ ID NO: 3: T46R/D79L/S87P/A112P/D142L (protein, listed as Thermoascus aurantiacus)
# chain: B1 chain with T224R, D257L, S265P, A290P, D320L, R330M
# B29: JTP137: protease variant of SEQ ID NO: 3: A27K D79L S87P A112P A126V D142L (protein, listed as Thermoascus aurantiacus)
# chain: B1 chain with A205K, D257L, S265P, A290P, A304V, D320L, R330M
# B30: JTP135: protease variant of SEQ ID NO: 3: S38T D79L S87P A112P A126V D142L (protein, listed as Thermoascus aurantiacus)
# chain: B1 chain with S216T, D257L, S265P, A290P, A304V, D320L, R330M
# B31: JTP136: protease variant of SEQ ID NO: 3: D79L Y82F S87P A112P A126V D142L (protein, listed as Thermoascus aurantiacus)
# chain: B1 chain with D257L, Y260F, S265P, A290P, A304V, D320L, R330M
# Test system: zein
# Test: Relative activity assay of protease variants (zein micro titer plate)
# Format: biochemical
# Details: Table 2
# Protocol: Each well contains 200 microL of 0.05-0.1% of zein (Sigma), 0.25 mM ZnSO4 and 1% of agar in 20 mM sodium acetate buffer, pH 4.5.
# Yeast clones on SC-glucose were inoculated to a well of a 96-well micro titre plate containing YPD+Zn medium and cultivated at 28° C. for 3 days. The culture supernatants were applied to a 96-well zein micro titer plate and incubated at at least 2 temperatures (ex. 60° C. and 65° C., 70° C. and 75° C., 70° C. and 80° C.) for more than 4 hours or overnight. The turbidity of zein in the plate was measured as A630 and the relative activity (higher/lower temperatures) was determined as an indicator of thermoactivity improvement. The clones with higher relative activity than the parental variant were selected and the sequence was determined.
row,Molecule,Relative activity 65° C./60° C.
1,B1,59%
2,B2,45%

# Same assay, conditions: Table 3
Molecule,Relative activity 75° C./70° C.,Relative activity 75° C./65° C.,Relative activity 70° C./65° C.
B3,92%,–,–
B4,95%,–,–
B5,94%,–,–
B6,–,71%,–
B7,99%,–,–
B8,92%,–,–
B9,–,73%,73%
B10,–,108%,–
B11,–,85%,–
B12,113%,–,–
B13,103%,–,–
B14,111%,–,–
B15,–,96%,–
B16,–,80%,–
B17,–,92%,–
B18,–,104%,–
B19,105%,–,–
B20,–,88%,–
B21,–,100%,–
B22,92%,–,–
B23,102%,–,–
B24,111%,–,–
B25,–,82%,–

# Same assay, conditions: Table 4
row,Molecule,Relative activity 75° C./65° C.
1,B26,119%
2,B27,141%
3,B28,126%

# Same assay, conditions: Table 5, upper part
row,Molecule,Relative activity 80° C./70° C.
1,B29,54%
2,B30,62%
3,B31,59%
